Measurements taken from IntAct's records for PubMed 21720390.

B1: NAD-dependent protein deacetylase sirtuin-3, mitochondrial (Homo sapiens), Q9NTG7 (parent)
chain: MAFWGWRAAAALRLWGRVVERVEAGGGVGPFQACGCRLVLGGRDDVSAGLRGSHGARGEPLDPARPLQRPPRPEVPRAFRRQPRAAAPSFFFSSIKGGRRSISFSVGASSVVGSGGSSDKGKLSLQDVAELIRARACQRVVVMVGAGISTPSGIPDFRSPGSGLYSNLQQYDLPYPEAIFELPFFFHNPKPFFTLAKELYPGNYKPNVTHYFLRLLHDKGLLLRLYTQNIDGLERVSGIPASKLVEAHGTFASATCTVCQRPFPGEDIRADVMADRVPRCPVCTGVVKPDIVFFGEPLPQRFLLHVVDFPMADLLLILGTSLEVEPFASLTEAVRSSVPRLLINRDLVGPLAWHPRSRDVAQLGDVVHGVESLVELLGWTEEMRDLVQRETGKLDGPDK

Variants of: B1
Conditions: with aldh2_human ALDH2, P05091
Chain of aldh2_human ALDH2, P05091 (P05091 whole entry): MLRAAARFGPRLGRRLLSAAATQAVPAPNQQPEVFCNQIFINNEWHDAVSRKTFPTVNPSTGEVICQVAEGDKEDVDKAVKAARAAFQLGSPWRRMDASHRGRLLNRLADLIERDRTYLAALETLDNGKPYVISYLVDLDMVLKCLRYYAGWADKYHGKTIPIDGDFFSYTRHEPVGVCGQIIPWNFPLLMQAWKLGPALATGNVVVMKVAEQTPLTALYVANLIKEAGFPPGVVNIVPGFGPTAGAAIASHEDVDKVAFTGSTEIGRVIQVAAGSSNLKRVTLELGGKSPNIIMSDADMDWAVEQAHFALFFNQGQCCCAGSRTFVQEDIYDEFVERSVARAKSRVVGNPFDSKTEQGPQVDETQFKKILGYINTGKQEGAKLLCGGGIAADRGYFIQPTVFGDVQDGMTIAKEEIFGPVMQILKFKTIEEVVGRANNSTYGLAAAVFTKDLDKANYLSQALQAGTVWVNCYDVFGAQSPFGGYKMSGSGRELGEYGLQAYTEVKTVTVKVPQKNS

Row | effect of a mutation on the interaction | Variant
1 | decreasing interaction | H248Y
